First the molecules themselves.
T1: human CD25-extracellular domain (CD25-ECD) (UniProt P01589 22-240)
T1 chain: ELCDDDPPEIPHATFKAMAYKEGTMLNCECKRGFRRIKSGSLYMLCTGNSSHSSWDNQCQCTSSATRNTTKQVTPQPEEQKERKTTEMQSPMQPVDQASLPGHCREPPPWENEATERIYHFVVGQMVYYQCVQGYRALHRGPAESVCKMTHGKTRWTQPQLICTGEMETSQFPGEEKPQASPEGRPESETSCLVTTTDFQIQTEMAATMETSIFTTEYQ

B1: ODY-N1783Hu1 (antibody, V domains shown)
VH: EVQLLESGGGLAQPGGSLRLSCAASGFTFSNYAMSWARQAPGKGLEWVSGIYSDGSGTYYADSVKGRFTISRDNAKNTVYLQMNSLRPEDTAVYYCSKGARSGSYYPWDDVWGQGTQVTVSS
B2: ODY-48D11Hu1 (antibody, V domains shown)
VH: EVQLLESGGGLVQPGGSLRLSCAASGFTFSNYAMSWARQAPGKGLEWVSGIYSDGSGTYYADSVKGRFTISRDNAKNTVYLQMNSLRPEDTAVYYCAKGRNSGSYYPFDDYWGQGTQVTVSS
B3: ODY-N1769Hu1 (antibody, V domains shown)
VH: EVQLLESGGGLAQPGGSLRLSCAASGFTFSNYAMSWVRQAPGKGLEWVSGIYSDGSGTYYADSVKGRFTISRDNAKNTVYLQMNSLRPEDTAVYYCSKGRHSGSYYPWDEYWGQGTQVTVSS
B4: ODY-48C10Hu1 (antibody, V domains shown)
VH: EVQLLESGGGLAQPGGSLRLSCAASGFTFSNYAMSWTRQAPGKGLEWVSGIYSDGSGTYYADSVKGRFTISRDNAKNTVYLQMNSLRPEDTAVYYCAKGRNSGSYYPFDDYWGQGTQVTVSS
B5: ODY-N2008Hu1 (antibody, V domains shown)
VH: EVQLLESGGGLVQPGGSLRLSCAASGRTFASFGMGWFRQAPGKEREFVAAISRGGGRTRYADSVKGRFTISRDDAKNTVYLQMNSLRPEDTAVYYCAASYFLLATTISGYDYWGQGTQVTVSS
B6: ODY-N2005Hu1 (antibody, V domains shown)
VH: EVQLLESGGGLVQPGGSLRLSCAASGRTFSSYGMGWFRQAPGKEREFVAAISQSGGRTRYADSVKGRFTISRDNAKNTVYLQMNSLRPEDTAVYYCAATNFLIATTISAYDYWGQGTQVTVSS
B7: ODY-N2010Hu1 (antibody, V domains shown)
VH: EVQLLESGGGLVQPGGSLRLSCAASGRTFSSYGMGWFRQAPGKEREFVVAISGSGGRTRYADSVKGRFTISRDNAKNTVYLQMNSLRPEDTAVYYCAASDFLIATSISAYDYWGQGTQVTVSS
B8: ODY-N2011Hu1 (antibody, V domains shown)
VH: EVQLLESGGGLVQPGGSLRLSCAASGRTFASFGMGWFRQAPGKEREFVAAISQGGGRTRYADSVKGRFTISRDDAKNTVYLQMNSLRPEDTAVYYCAASYFLLATTISGYDYWGQGTQVTVSS
B9: 46A3 (VHH)
VHH: EVQLLESGGGLAQPGGSLRLSCAASGFTFSNYAMSWARQAPGKGLEWVSGIYSDGSGTYYADSVKGRFTISRDNAKNTVYLQMNSLRPEDTAVYYCAKGRNSGSYYPWDDYWGQGTQVTVSS
B10: ODY-N1808Hu1 (antibody, V domains shown)
VH: EVQLLESGGGLAQPGGSLRLSCAASGFTFSNYAMSWVRQAPGKGLEWVSGIYSDGSGTYYADSVKGRFTISRDNAKNTVYLQMNSLRPEDTAVYYCATGKHSGSYYPWDDYWGQGTQVTVSS
B11: ODY-N1810Hu1 (antibody, V domains shown)
VH: EVQLLESGGGLAQPGGSLRLSCAASGFTFSNYAMSWARQAPGKGLEWVSGIYSDSSGTYYADSVKGRFTISRDNAKNTVYLQMNSLRPEDTAVYYCVKGRGSGSYYPFDDYWGQGTQVTVSS
B12: ODY-N1811Hu1 (antibody, V domains shown)
VH: EVQLLESGGGLAQPGGSLRLSCAASGFTFSNYAMSWARQAPGKGLEWVSGIYSDSSGTYYADSVKGRFTISRDNAKNTVYLQMNSLRPEDTAVYYCAKGRGSGSYYPLDDYWGQGTQVTVSS
B13: ODY-N1812Hu1 (antibody, V domains shown)
VH: EVQLLESGGGLAQPGGSLRLSCAASGFTFSNYAMSWARQAPGKGLEWVSGIYSDSSGTYYADSVKGRFTISRDNAKNTVYLQMNSLRPEDTAVYYCAKGRGSGGYYPFDDYWGQGTQVTVSS
B14: ODY-N1974Hu1 (antibody, V domains shown)
VH: EVQLVESGGGLVQPGGSLRLSCAASGRKFSTLIMAWYRQAPGKQRELVATVDRGGTTTYADSVKGRFTISRDNAKNTTYLQMNSLRPEDTAVYYCNALRNWGQGTQVTVSS
B15: ODY-N1978Hu1 (antibody, V domains shown)
VH: EVQLVESGGGLVQPGGSLRLSCAASGRSFSTLIMGWYRQAPGKQRELVATIERGGTTTYADSVKGRFTISRDNAKNTVYLQMNSLRPEDTAVYYCNALRDWGQGTQVTVSS
B16: ODY-N2017Hu1 (antibody, V domains shown)
VH: EVQLLESGGGLVQPGGSLRLSCAASGRTFSSYGMGWFRQAPGKEREFVAAISQSGGRTRYADSVKGRFTISRDNAKNTVYLQMNSLRPEDTAVYYCAATNFLIAATISAYDYWGQGTQVTVSS
B17: ODY-N2024Hu1 (antibody, V domains shown)
VH: EVQLLESGGGLVQPGGSLRLSCAASGRTFSSYGMGWFRQAPGKEREFVAAISQSGGRTRYADSVKGRFTISRDNVKNTVYLQMNSLRPEDTAVYYCAATNFLIATTISAHDYWGQGTQVTVSS
B18: ODY-N2022Hu1 (antibody, V domains shown)
VH: EVQLLESGGGLVQPGGSLRLSCAASGRTFSSYGMGWFRQAPGKEREFVAAISQSGGRTRYADSVKGRFTISRDNAKNTVYLQMNSLRPEDTAVYYCAATKFLIATTISAYDYWGQGTQVTVSS
B19: ODY-N2016Hu1 (antibody, V domains shown)
VH: EVQLLESGGGLVQPGGSLRLSCAASGRTFADFGMGWFRQAPGKEREFVAAISRSGGRTRYADSVKGRFTISRDDAKNTVYLQMNSLRPEDTAVYYCAASYFLLAITISGYDYWGQGTQVTVSS
B20: ODY-N2027Hu1 (antibody, V domains shown)
VH: EVQLLESGGGLVQPGGSLRLSCAASGRTFSSYGMGWFRQAPGKEREFVAAISQSGGRTRYADSVKGRFTISRDNAKNTVYLQMNSLRPEDTAVYYCAATNFLIATAISAYDYWGQGTQVTVSS
B21: ODY-N2026Hu1 (antibody, V domains shown)
VH: EVQLLESGGGLVQPGGSLRLSCAASGRTFSSYGMGWFRQAPGKEREFVAAISQSGGRTRYADSVKGRFTISRDNAKNTVYLQMNSLRPEDTAVYYCAATNFPIATTISAYDYWGQGTQVTVSS
B22: ODY-N2025Hu1 (antibody, V domains shown)
VH: EVQLLESGGGLVQPGGSLRLSCAASGRTFSSYGMGWFRQAPGKEREFVAAISQSGGRTRYADSVKGRFTISRDNAKNTVYLQMNSLRPEDTAVYYCAATNVLIATTISAYDYWGQGTQVTVSS
B23: ODY-N1961Hu1 (antibody, V domains shown)
VH: EVQLVESGGGLVQPGGSLRLSCAASGRSFSTLIMAWYRQAPGKQRELVATIERGGTTTYADSVKGRFTASRDNAKNTVYLQMNSLRPEDTAVYYCNALGYWGQGTQVTVSS
B24: ODY-N1970Hu1 (antibody, V domains shown)
VH: EVQLVESGGGLVQPGGSLRLSCAASGRSFSTLIMGWYRQAPGKQRELVATIERGGTTTYADSVKGRFTISRDNAKNTVYLQMNSLRPEDTAVYYCNALLYWGQGTQVTVSS
B25: ODY-N1955Hu1 (antibody, V domains shown)
VH: EVQLVESGGGLVQPGGSLRLSCAASGRSFSTLIMAWYRQAPGKQRELVATIERGGTPTYADSVKGRFTISRDNAKNTVYLQMNSLRPEDTAVYYCNALGYWGQGTQVTVSS
B26: ODY-N1998Hu1 (antibody, V domains shown)
VH: EVQLVESGGGLVQPGGSLRLSCAASGRRFSTLIMGWYRQAPGKQRELVATIERGGTPTYADSVKGRFTISRDNAKNTVYLQMNSLRPEDTAVYYCKTLRYWGQGTQVTVSS
B27: ODY-N1999Hu1 (antibody, V domains shown)
VH: EVQLVESGGGLVQPGGSLRLSCAASGRKFSTLIMGWYRQAPGKQRELVATIERDDTTTYADSVKGRFTISRDNAKNTVYLQMNSLRPEDTAVYYCKTLRYWGQGTQVTVSS
B28: ODY-N2001Hu1 (antibody, V domains shown)
VH: EVQLVESGGGLVQPGGSLRLSCAASGRKFSTLIMAWYRQAPGKQRELVATIDRDGTTTYADSVKGRFTISRDNAKNTVYLQMNSLRPEDTAVYYCKTLRYWGQGTQVTVSS
B29: ODY-N2000Hu1 (antibody, V domains shown)
VH: EVQLVESGGGLVQPGGSLRLSCAASGRKFSTLIMGWYRQAPGKQRELVATIERDDTTTYADSVKGRFTISRDNAKNTVYLQMNSLRPEDTAVYYCTTLRYWGQGTQVTVSS

This note sets out measurements from patent US20260258143A1 (published 2026).

As a reminder, the Kd is the free concentration of one partner at which half of the binding sites on the other are occupied at equilibrium, for simple one-to-one binding.

One experiment deals with T1, human CD25-extracellular domain …. As to the kind of experiment: SPR.
B1 had a Kd of 107 nM.
For B2, the affinity, expressed as Kd, was 102 nM.
Regarding B3, the affinity, expressed as Kd, was 49 nM.
Still for that read-out and setting: as for B4, the figure is 66 nM.

The next experiment shares this target. Description: SPR. This is another data set of the same source. Background: Surface plasmon resonance follows binding to a sensor surface in real time, without labels.
On to B5, for which binding was put at a Kd of 22 nM.
In turn, B6 came in with a dissociation constant (Kd) of 13 nM. Compared with the last molecule, the Kd is about 1.7-fold lower.
The molecule B7 showed a Kd of 9.4 nM.
Consider B8, for which the affinity, expressed as Kd, was 9.4 nM.

For a further experiment, the target named is cCD25. As to the kind of experiment: SPR.
As to B9, the affinity, expressed as Kd, was 34 nM.

Another experiment deals with T1, human CD25-extracellular domain …. As to the kind of experiment: SPR. This is another data set of the same source.
In turn, B10 had a Kd of 241 nM.
On the same count and under the same terms, as for B11, the figure is 62 nM; as for B12, 348 nM; as for B13, 149 nM.

Another experiment shares this target. Description: SPR. This is another data set of the same source.
B14 came in with a Kd of 20 nM.
The same measure, in the same setting: as for B15, the figure is 26 nM.

The target is the same in another experiment. As to the kind of experiment: SPR. The source holds these as a separate data set.
In turn, B16 returned a Kd of 13 nM.
Still for that read-out and setting: as for B17, the figure is 19 nM.
Still for that read-out and setting: as for B18, the figure is 17 nM; as for B19, 12 nM.

The next experiment has the same target. As to the kind of experiment: SPR. The source holds these as a separate data set.
Molecule B20 had a Kd of 10 nM.
On to B21, for which binding was put at a Kd of 11 nM.
The molecule B22 returned a Kd of 14 nM.

The target is the same in another experiment. As to the kind of experiment: SPR. The source holds these as a separate data set.
Molecule B23 yielded a Kd of 11 nM.
Same read-out and setting: next, B24: 12 nM.
On the same count and under the same terms, as for B25, the figure is 13 nM.

The next experiment shares this target. Description: SPR. This is another data set of the same source.
With B26, binding was put at a Kd of 31 nM.
Same read-out and setting: next, B27: 13 nM.
Same read-out and setting: next, B28: 18 nM.
The same measure, in the same setting: as for B29, the figure is 14 nM.
